The text below walks through data of PMC9896928.

The target in this assay is glutathione transferase (GST) tag-fused cGAS. The experiment in a line: SEC + other: fluorescence correlation spectroscopy.

With “glutathione transferase (GST) tag-fused cGAS (enzyme)”, the stoichiometry N (as a rule, a count of units in the complex or per binding partner) amounted to 2.
